Experimental data taken from publication PMC9561280.

Target: T1, Fur (Pseudomonas aeruginosa PA14) (UniProt Q03456)
T1 sequence: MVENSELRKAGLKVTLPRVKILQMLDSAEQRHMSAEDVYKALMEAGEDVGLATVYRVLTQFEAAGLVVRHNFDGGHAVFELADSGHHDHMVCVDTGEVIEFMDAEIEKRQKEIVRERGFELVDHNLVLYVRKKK
Assay: EMSA
Details: 25 mM Tris-HCl pH 7.5, 150 mM NaCl, 20 ul, 4 C 30 min; 10% PAGE in 0.5x TBE; no metal stated

For “CTGGTCGAGTCGATGATGGTGGCCGGGCGCTGAGGCCGGGTTTCCCTCTATAAAACGCCAGCGCTCGTCGCTGGCGTTTTCGTTTCCGCCTGTTCAATTGTCCGCCTCTATGGGGACCATGCTTGTCTTTTGCCAAGAAGAAAACAATAATCAATCTCATTATCGTCTGGTGAGGTTGCC (double strand) [PfagA (Ppa4471)]”, the binding was “binds”.
